Results published in the supplement of paper PMC7877785.
± gives the uncertainty stated by the source.

Experiment: self-splicing fitness, log relative to wild type (ln ratio); higher = more splicing; Tetrahymena group I intron in knt gene, E. coli kanamycin selection, DiMSum; sequences stand for … in CUCUCU…GGAGGGAAAAGUUAUCAGGCAUGCACCUGGUAGCUAGUCUUUAAACCAAUAGAUUGCAUCGGUUUAAAAGGCAAGACCGUCAAAUUGCGGGAAAGGGGUCAACAGCCGUUCAGUACCAAGUCUCAGGGGAAACUUUGAGAUGGCCUUGCAAAGGGUAUGGUAAUAAGCUGACGGACAUGGUCCUAACCACGCAGCCAAGUCCUAAGUCAACAGAUCUUCUGUUGAUAUGGAUGCAGUUCACAGACUAAAUGUCGGUCGGGGAAGAUGUAUUCUUCUCAUAAGAUAUAGUCGGACCUCUCCUUAAUGGGAGCUAGCGGAUGAAGUGAUGCAACACUGGAGCCGCUGGGAACUAAUUUGUAUGCGAAAGUAUAUUGAUUAGUUUUGGAGUACUCGUGGUCG
Method in brief: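 DiMSum derived fitness as the error-weighted combination of fold changes across replicates, kanamycin versus no kanamycin, normalised to wild type. E. coli BL21(DE3) held the library, which randomised all eight P1ex-region intron nucleotides within the knt kanamycin-resistance gene on pET-22b(+). Six replicate transformations grew overnight at 37°C or 30°C on LB agar with or without 25 μg/mL kanamycin, also containing 100 μg/mL carbenicillin, 50 μM IPTG and 0.2% rhamnose, and pooled colonies were amplicon-sequenced on an Illumina HiSeq 2500.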

| Sequence | self-splicing fitness (ln) (30 °C) | self-splicing fitness (ln) (37 °C) |
| --- | --- | --- |
| GACAAGCAAUAUUACGCGGA | -2.24 ± 0.16 | -1.25 ± 0.13 |
| GACAAGCAAUAUUACGCUAG | -2.28 ± 0.081 | -1.36 ± 0.089 |
| GACAAGCAAUAUUACGCUCG | -1.47 ± 0.17 | -0.891 ± 0.21 |
| GACAAGCAAUAUUACGGAUC | -1.19 ± 0.13 | -0.182 ± 0.15 |
| GACAAGCAAUAUUACGGGGC | -3.36 ± 0.18 | -2.81 ± 0.23 |
| GACAAGCAAUAUUACGGUAA | -1.69 ± 0.11 | -0.907 ± 0.11 |
| GACAAGCAAUAUUACGGUCC | -3.13 ± 0.2 | -1.83 ± 0.29 |
| GACAAGCAAUAUUACGUAAC | -1.64 ± 0.077 | -1.22 ± 0.11 |
| GACAAGCAAUAUUACGUACA | -0.573 ± 0.055 | -0.314 ± 0.079 |
| GACAAGCAAUAUUACGUCGA | -2.53 ± 0.09 | -1.24 ± 0.078 |
| GACAAGCAAUAUUACGUCGG | -2.91 ± 0.14 | -2.43 ± 0.18 |
| GACAAGCAAUAUUACGUGAG | -2.28 ± 0.058 | -1.43 ± 0.06 |
| GACAAGCAAUAUUACGUGCG | -1.16 ± 0.068 | -0.532 ± 0.081 |
| GACAAGCAAUAUUACGUGUG | -2.78 ± 0.078 | -1.56 ± 0.083 |
| GACCAGCAAUAUUACGACCA | -0.124 ± 0.17 | -0.054 ± 0.15 |
| GACCAGCAAUAUUACGACCG | -0.572 ± 0.11 | -0.318 ± 0.17 |
| GACCAGCAAUAUUACGAGGC | -3.02 ± 0.13 | -0.778 ± 0.091 |
| GACCAGCAAUAUUACGAUCC | -1.93 ± 0.14 | -1.27 ± 0.17 |
| GACCAGCAAUAUUACGCAAA | -1.75 ± 0.11 | -0.859 ± 0.1 |
| GACCAGCAAUAUUACGCAAG | -1.81 ± 0.089 | -1.15 ± 0.11 |
| GACCAGCAAUAUUACGCACC | -0.0772 ± 0.089 | -1.06 ± 0.11 |
| GACCAGCAAUAUUACGCAUA | -0.474 ± 0.058 | -0.452 ± 0.074 |
| GACCAGCAAUAUUACGCCGA | -0.69 ± 0.14 | -0.272 ± 0.15 |
| GACCAGCAAUAUUACGCGUA | -0.76 ± 0.059 | -0.392 ± 0.068 |
| GACCAGCAAUAUUACGCUCC | -2.32 ± 0.22 | -1.83 ± 0.21 |

| Sequence | self-splicing fitness (ln) (30 °C) | self-splicing fitness (ln) (37 °C) |
| --- | --- | --- |
| GACCAGCAAUAUUACGGAGG | -2.04 ± 0.068 | -0.681 ± 0.07 |
| GACCAGCAAUAUUACGGCAU | 0.00655 ± 0.046 | 0.553 ± 0.068 |
| GACCAGCAAUAUUACGGGAU | -1.71 ± 0.084 | -0.575 ± 0.099 |
| GACCAGCAAUAUUACGGGCC | -3.69 ± 0.15 | -2.26 ± 0.21 |
| GACCAGCAAUAUUACGGGCU | -2.93 ± 0.14 | -1.96 ± 0.14 |
| GACCAGCAAUAUUACGGUCC | -2.95 ± 0.17 |  |
| GACCAGCAAUAUUACGGUUG | -0.661 ± 0.053 | -0.341 ± 0.062 |
| GACCAGCAAUAUUACGUAGC | -0.693 ± 0.069 | -0.496 ± 0.082 |
| GACCAGCAAUAUUACGUGGA | -1.67 ± 0.078 | -0.914 ± 0.081 |
| GACCAGCAAUAUUACGUUCG | -2.05 ± 0.073 | -0.063 ± 0.074 |
| GACCAGCAAUAUUACGUUGA | -0.701 ± 0.053 | -0.203 ± 0.066 |
| GACCAGCAAUAUUACGUUGG | -3.95 ± 0.13 | -2.53 ± 0.12 |
| GACGAGCAAUAUUACGAAAC | -4.29 ± 0.3 | -3.14 ± 0.28 |
| GACGAGCAAUAUUACGAAGA | -3.31 ± 0.27 |  |
| GACGAGCAAUAUUACGACCU | -2.01 ± 0.15 | 0.0378 ± 0.16 |
| GACGAGCAAUAUUACGACGU | -2.31 ± 0.23 | -1.13 ± 0.25 |
| GACGAGCAAUAUUACGAUGC | -3.82 ± 0.44 | -0.275 ± 0.21 |
| GACGAGCAAUAUUACGCACC | -3.06 ± 0.15 | -0.796 ± 0.12 |
| GACGAGCAAUAUUACGCCGU | -2.58 ± 0.45 |  |
| GACGAGCAAUAUUACGCGGA | -2.74 ± 0.23 | -2.87 ± 0.36 |
| GACGAGCAAUAUUACGCGGC | -3.25 ± 0.29 |  |
| GACGAGCAAUAUUACGCUAU | -3.39 ± 0.2 | -2.42 ± 0.25 |
| GACGAGCAAUAUUACGCUGG |  | -2.79 ± 0.43 |
| GACGAGCAAUAUUACGGACU | -0.448 ± 0.15 | -0.75 ± 0.18 |
